Target: SidN (Lpg1083), recombinant with 6-His tag (Legionella pneumophila) (UniProt Q5ZWK2)
Assay: SEC

“SidN (Lpg1083), recombinant with 6-His tag (from UniProt Q5ZWK2 1-227) (natural protein)” gave a stoichiometry N of 2.

Source: article PMC10729856
